Laboratory results: patent US20210000969A1 (HUALAN GENETIC ENGINEERING, published 2021)

Target: T1, mouse PV-1 protein (mouse, UniProt Q91VC4 1-438, limits assumed)
T1 construct: The form tested is not described
T1 sequence: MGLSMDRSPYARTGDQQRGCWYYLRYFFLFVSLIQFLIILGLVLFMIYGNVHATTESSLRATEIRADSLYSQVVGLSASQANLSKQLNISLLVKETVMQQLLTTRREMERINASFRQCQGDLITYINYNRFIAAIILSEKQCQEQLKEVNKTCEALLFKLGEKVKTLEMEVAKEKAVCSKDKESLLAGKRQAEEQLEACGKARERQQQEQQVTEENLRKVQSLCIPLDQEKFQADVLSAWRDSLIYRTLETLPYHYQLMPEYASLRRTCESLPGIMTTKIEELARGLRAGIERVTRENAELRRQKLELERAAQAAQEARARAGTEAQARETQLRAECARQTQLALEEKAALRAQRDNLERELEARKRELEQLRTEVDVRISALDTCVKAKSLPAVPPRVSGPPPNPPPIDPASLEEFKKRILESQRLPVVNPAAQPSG
Assay: not described

B1: murine monoclonal antibody STW-139-15 (antibody, V domains shown)
VH: QVQLQQSGAELVKPGASVKLSCKASGYTFTDYYMYWVKQRPGQGLELIGEINPTNGDVNFNEMFKSKATLTVDTSSRTAYMQLSSLTSEDSAVYYCTSIHYWGQGTLVTVSA
VL: DIVMTQSPSSMYASLGERITITCKASQDIKTNLSWYQQKPWKSPKTLIYYATDLADGVPSRFSGSGSGQYFSLTISSLESDDTATYYCLQHDDRPFTFGSGTKLEIK
binding result: no binding
